# Experimental data reported in paper PMC4330371, “Interaction between the RNA-dependent ATPase and poly(A) polymerase subunits of the TRAMP complex is mediated by short peptides and important for snoRNA processing” (Nucleic Acids Research, 2015).
# Entries after “also recorded” stand apart in the source; their conditions may differ. No end group written: not given here.
# Columns and labels:
# Assay type in all cases: cell-based, Saccharomyces cerevisiae
# [1] = tested on: Mtr4; assay: Yeast two-hybrid interaction with Mtr4; set-up: key to Y2H interaction with Mtr4: +: growth on both SC-ADE and SC-HIS supplemented with 10 mM 3-AT; -: a failure to interact; conditions: for yeast two-hybrid interaction with Mtr4: full-length Mtr4, growth on SC-ADE and SC-HIS; for Y2H interaction with Mtr4: Trf5 fragments, growth on SC-ADE and SC-HIS supplemented with 10 mM 3-AT
# Source text: (§1) The yeast two-hybrid assays used plasmids pOBD2 and pOAD that were previously described ([28]). The yeast two-hybrid plasmids for Mtr4 (pAV745), Mtr4-archless (pAV746) and Trf5–53–199 (pAV744) have been previously described as have the positive controls that contain MEC3 and RAD17 ([29]). Yeast two-hybrid plasmids with Trf5 residues 68–199 (pAV759), 83–199 (pAV760), 98–199 (pAV761), 118–199 (pAV766), 53–184 (pAV762), 53–169 (pAV763), 53–154 (pAV764), 53–139 (pAV767) and 53–124 (pAV768) were generated similarly to pAV744. Briefly, these regions of TRF5 were PCR amplified with primers that contain PvuII and PstI sites, digested with those restriction enzymes and cloned into pOAD. The yeast two-hybrid plasmids with Trf5 residues 98–117 were generated by cloning oligonucleotides for this region into the PvuII and PstI sites of pOAD.
# (§2) Strain trf4Δ/trf5Δ/pRS416-TRF4 has been previously described (MATa, leu2-Δ0, ura3-Δ0, his3-Δ1, met15-Δ0, trf4Δ::NAT, trf5Δ::KAN; [33]). The TRF5 and trf5-Δ98–117 plasmids were introduced by transformation and selection on media lacking leucine. Transformants were then plated on media containing 5FOA to select for cells that had lost the pRS416-TRF4 plasmid. The rrp44-exo^−, rrp44-endo^− and rrp6Δ::KAN strains are isogenic to this strain and have been previously described ([31]). Yeast two-hybrid strains PJ69–4α and PJ69–4a have been previously described ([28],[34]). They are MATα and MATa, respectively, and in addition are both trp1–901, leu2–3,112, ura3–52, his3–200, gal4Δ, gal80Δ, LYS2::GAL1-HIS3, GAL2-ADE2, met2::GAL7-lacZ.
# Yeast two-hybrid assays were carried out as previously described ([29]). Briefly, the MTR4 TRP1 plasmids were transformed into PJ69–4α and the TRF5 LEU2 plasmids were transformed into PJ69–4a. Transformants were crossed to each other and diploids that contain both plasmids were selected on SC-TRP-LEU. These diploids were then serially diluted and spotted on SC-TRP-LEU, SC-ADE and SC-HIS media.
# [2] = tested on: Mtr4-archless; assay: Yeast two-hybrid interaction with Mtr4-archless; conditions: growth on SC-ADE and SC-HIS
# Source text: as §1
# as §2, with “Yeast two-hybrid strains PJ69–4α and PJ69–4a have been previously described ([28],[34]). They are MATα and MATa, respectively, and in addition are both trp1–901, leu2–3,112, ura3–52, his3–200, gal4Δ, gal80Δ, LYS2::GAL1-HIS3, GAL2-ADE2, met2::GAL7-lacZ.” left out
# [3] = tested on: endogenous Mtr4; assay: Co-purification of endogenous Mtr4 with TAP-tagged Trf5; conditions: TAP-tagged Trf5 proteins expressed from endogenous promoter, IgG Sepharose, 2 h at 4°C, IP50/IP150 buffer pH 7.5, western blot with anti-Mtr4
# Source text: The Trf5-Δ98–117-TAP and Trf5-TAP plasmids are low copy (CEN) plasmids derived from pRS415 ([30]) with the endogenous TRF5 promoter driving expression of Trf5 or Trf5-Δ98–117. The trf5-Δ98–117-TAP plasmid (pAV854) was generated by ligation of three DNA fragments. The first fragment contained the promoter and 5′ end of TRF5 and was generated by PCR with oligonucleotides oAV906 ([…]) and oAV870 ([…]) and digestion with NotI and SpeI. The second fragment contained the 3′ end of TRF5 and was generated by PCR with oligonucleotides oAV871 ([…]) and oAV869 ([…]) and digestion with SpeI and PstI. The third fragment was pAV476 ([31]) digested with NotI and PstI. The TRF5-TAP plasmid (pAV885) was subsequently generated by replacing an XbaI to BstAPI fragment that contained the internal deletion with the corresponding wild-type sequence.
# as §2, with “Yeast two-hybrid strains PJ69–4α and PJ69–4a have been previously described ([28],[34]). They are MATα and MATa, respectively, and in addition are both trp1–901, leu2–3,112, ura3–52, his3–200, gal4Δ, gal80Δ, LYS2::GAL1-HIS3, GAL2-ADE2, met2::GAL7-lacZ.” left out
Molecule,Y2H interaction with Mtr4 [1],also measured
"Trf5 98–117: yeast two-hybrid construct with Trf5 residues 98–117, conserved 20 amino acid peptide (NNSLEDNQDFIAFSDSSEDE; also: fused to Gal4 activation domain, end not given here)",,yeast two-hybrid interaction with Mtr4 [1]: interacts with Mtr4; yeast two-hybrid interaction with Mtr4 ([1]; listed as amino acids 98–117 of Trf5): sufficient for interaction with Mtr4; also recorded: indeed interacted with Mtr4; yeast two-hybrid interaction with Mtr4-archless [2]: interacts both with full-length and archless Mtr4
"Trf5 fragment 118-199: yeast two-hybrid construct of Trf5 residues 118–199 (protein, UniProt P48561 118-199, looked up, fragment, yeast two-hybrid fusion) TEQIKEDDDERSSFLLTDEHEVSKLTSQQSLNTESACNVEYPWIRNHCHSKQRRIADWLTSEIKDFVHYISPSKNEIKCRNR",-,
"Trf5 fragment 53-154: yeast two-hybrid construct of Trf5 residues 53–154 (protein, UniProt P48561 53-154, looked up, fragment, yeast two-hybrid fusion) AIDVEDDDTFGNLVLMENDKSDVDIPVIEEVTSSEDEQRAESSKRNNSLEDNQDFIAFSDSSEDETEQIKEDDDERSSFLLTDEHEVSKLTSQQSLNTESAC",+,
"Trf5 fragment 53-169: yeast two-hybrid construct of Trf5 residues 53–169 (protein, UniProt P48561 53-169, looked up, fragment, yeast two-hybrid fusion) AIDVEDDDTFGNLVLMENDKSDVDIPVIEEVTSSEDEQRAESSKRNNSLEDNQDFIAFSDSSEDETEQIKEDDDERSSFLLTDEHEVSKLTSQQSLNTESACNVEYPWIRNHCHSKQ",+,
"Trf5 fragment 53-139: yeast two-hybrid construct of Trf5 residues 53–139 (protein, UniProt P48561 53-139, looked up, fragment, yeast two-hybrid fusion) AIDVEDDDTFGNLVLMENDKSDVDIPVIEEVTSSEDEQRAESSKRNNSLEDNQDFIAFSDSSEDETEQIKEDDDERSSFLLTDEHEV",+,
"Trf5 fragment 98-199: yeast two-hybrid construct of Trf5 residues 98–199 (protein, UniProt P48561 98-199, looked up, fragment, yeast two-hybrid fusion) NNSLEDNQDFIAFSDSSEDETEQIKEDDDERSSFLLTDEHEVSKLTSQQSLNTESACNVEYPWIRNHCHSKQRRIADWLTSEIKDFVHYISPSKNEIKCRNR",+,
"Trf5 fragment 83-199: yeast two-hybrid construct of Trf5 residues 83–199 (protein, UniProt P48561 83-199, looked up, fragment, yeast two-hybrid fusion) VTSSEDEQRAESSKRNNSLEDNQDFIAFSDSSEDETEQIKEDDDERSSFLLTDEHEVSKLTSQQSLNTESACNVEYPWIRNHCHSKQRRIADWLTSEIKDFVHYISPSKNEIKCRNR",+,
"Trf5 fragment 53-124: yeast two-hybrid construct of Trf5 residues 53–124 (protein, UniProt P48561 53-124, looked up, fragment, yeast two-hybrid fusion) AIDVEDDDTFGNLVLMENDKSDVDIPVIEEVTSSEDEQRAESSKRNNSLEDNQDFIAFSDSSEDETEQIKED",+,
"Trf5 fragment 53-199: yeast two-hybrid construct of Trf5 residues 53–199 (protein, left off: Gal4 activation domain (from the vector pOAD), end not stated, kept) AIDVEDDDTFGNLVLMENDKSDVDIPVIEEVTSSEDEQRAESSKRNNSLEDNQDFIAFSDSSEDETEQIKEDDDERSSFLLTDEHEVSKLTSQQSLNTESACNVEYPWIRNHCHSKQRRIADWLTSEIKDFVHYISPSKNEIKCRNR",+,
"full-length TAP-tagged Trf5: TAP-tagged full-length Trf5 expressed from the endogenous TRF5 promoter (protein, left off: TAP, end not stated, kept, TAP-tagged full-length Trf5 expressed from the endogenous TRF5 promoter) MTRLKAKYSPTKGKRKEDKHTKRMRKSSFTRTQKMLEVFNDNRSHFNKYESLAIDVEDDDTFGNLVLMENDKSDVDIPVIEEVTSSEDEQRAESSKRNNSLEDNQDFIAFSDSSEDETEQIKEDDDERSSFLLTDEHEVSKLTSQQSLNTESACNVEYPWIRNHCHSKQRRIADWLTSEIKDFVHYISPSKNEIKCRNRTIDKLRRAVKELWSDADLHVFGSFATDLYLPGSDIDCVVNSRNRDKEDRNYIYELARHLKNKGLAIRMEVIVKTRVPIIKFIEPQSQLHIDVSFERTNGLEAAKLIREWLRDSPGLRELVLIIKQFLHSRRLNNVHTGGLGGFTVICLVYSFLNMHPRIKSNDIDVLDNLGVLLIDFFELYGKNFGYDDVAISISDGYASYIPKSCWRTLEPSRSKFSLAIQDPGDPNNNISRGSFNMKDIKKAFAGAFELLVNKCWELNSATFKDRVGKSILGNVIKYRGQKRDFNDERDLVQNKAIIENERYHKRRTRIVQEDLFINDTEDLPVEEIYKLDEPAKKKQKAKKDKREGEIKKSAIPSPPPDFGVSRSKLKRKVKKTDQGSLLHQNNLSIDDLMGLSENDQESDQDQKGRDTPSGQDEKSPLETKTVDAQTRRDYWLSKGQAL",,co-purification of endogenous Mtr4 (words) [3]: results in co-purification of endogenous Mtr4; co-purification of endogenous Mtr4 (words) ([3]; listed as full-length Trf5): readily detectable
"Trf5 fragment 53-184: yeast two-hybrid construct of Trf5 residues 53–184 (protein, UniProt P48561 53-184, looked up, fragment, yeast two-hybrid fusion) AIDVEDDDTFGNLVLMENDKSDVDIPVIEEVTSSEDEQRAESSKRNNSLEDNQDFIAFSDSSEDETEQIKEDDDERSSFLLTDEHEVSKLTSQQSLNTESACNVEYPWIRNHCHSKQRRIADWLTSEIKDFV",+,
"Trf5 fragment 68-199: yeast two-hybrid construct of Trf5 residues 68–199 (protein, UniProt P48561 68-199, looked up, fragment, yeast two-hybrid fusion) MENDKSDVDIPVIEEVTSSEDEQRAESSKRNNSLEDNQDFIAFSDSSEDETEQIKEDDDERSSFLLTDEHEVSKLTSQQSLNTESACNVEYPWIRNHCHSKQRRIADWLTSEIKDFVHYISPSKNEIKCRNR",+,
